Assays:
HLA-B*08:01 = assay: IEDB peptide-MHC binding, purified MHC/competitive/fluorescence; filed as Kd, often an IC50 or EC50 that approximates it; ≥ and ≤ were set here for values at or beyond the usual limits of such assays
HLA-B*58:01 = assay: as above
HLA-A*30:02 = assay: as above
HLA-B*44:02 = assay: as above
HLA-B*40:01 = assay: as above
HLA-B*27:05 = assay: as above
HLA-A*66:01 = assay: as above
HLA-B*14:02 = assay: as above
HLA-A*11:01 = assay: as above
HLA-A*01:01 = assay: as above
HLA-B*53:01 = assay: as above
HLA-A*24:03 = assay: IEDB peptide-MHC binding, purified MHC/direct/fluorescence; filed as Kd, often an IC50 or EC50 that approximates it; ≥ and ≤ were set here for values at or beyond the usual limits of such assays
HLA-B*18:01 = assay: as above
HLA-B*46:01 = assay: as above
HLA-A*29:02 = assay: as above
HLA-B*51:01 = assay: as above
HLA-A*23:01 [1] = assay: as above; conditions: source organism: Brucella melitensis bv. 1 str. 16M
HLA-B*27:03 = assay: as above
HLA-A*03:01 = assay: as above
HLA-B*15:01 = assay: as above
HLA-A*02:03 = assay: as above; conditions: source organism: Brucella melitensis bv. 1 str. 16M
HLA-A*26:01 = assay: as above
HLA-B*57:01 = assay: as above
HLA-A*02:11 = assay: as above; conditions: source organism: Brucella melitensis bv. 1 str. 16M
HLA-A*02:01 = assay: as above
HLA-A*02:16 = assay: as above; conditions: source organism: Brucella melitensis bv. 1 str. 16M
HLA-B*39:01 = assay: as above
HLA-A*68:02 = assay: as above; conditions: source organism: Brucella melitensis bv. 1 str. 16M
HLA-B*15:17 = assay: as above
HLA-A*02:19 = assay: as above
HLA-A*02:12 = assay: as above
HLA-A*23:01 [2] = assay: IEDB peptide-MHC binding, purified MHC/competitive/fluorescence; filed as Kd, often an IC50 or EC50 that approximates it; ≥ and ≤ were set here for values at or beyond the usual limits of such assays; conditions: source organism: Vibrio vulnificus YJ016
HLA-B*07:02 = assay: as above; conditions: source organism: Vibrio vulnificus YJ016
HLA-A*30:01 = assay: as above; conditions: source organism: Vibrio vulnificus YJ016
HLA-A*02:06 = assay: IEDB peptide-MHC binding, purified MHC/direct/fluorescence; filed as Kd, often an IC50 or EC50 that approximates it; ≥ and ≤ were set here for values at or beyond the usual limits of such assays; conditions: source organism: Vibrio vulnificus YJ016
[3] = source organism: Brucella melitensis bv. 1 str. 16M
[4] = source organism: Vibrio vulnificus YJ016

TTRAVNMEV was tested, and the Kd (HLA-B*08:01; [3]) was no less than 5 µM, the Kd (HLA-B*58:01; [3]) was no less than 5 µM and the Kd (HLA-A*30:02; [3]) was no less than 5 µM. It also gave a Kd (HLA-B*44:02; [3]) of no less than 5 µM, a Kd (HLA-B*40:01; [3]) of no less than 5 µM and a Kd (HLA-B*27:05; [3]) of no less than 5 µM. The Kd (HLA-A*66:01; [3]) was no less than 5 µM, the Kd (HLA-B*14:02; [3]) was no less than 5 µM and the Kd (HLA-A*11:01; [3]) was no less than 5 µM. The Kd (HLA-A*01:01; [3]) was no less than 5 µM, the Kd (HLA-B*53:01; [3]) was no less than 5 µM and the Kd (HLA-A*24:03; [3]) was no less than 20 µM. For the same sequence, the Kd (HLA-B*18:01; [3]) was no less than 20 µM, the Kd (HLA-B*46:01; [3]) was no less than 20 µM and the Kd (HLA-A*29:02; [3]) was no less than 20 µM. The Kd (HLA-B*51:01; [3]) was no less than 20 µM, the Kd (HLA-A*23:01 [1]) was no less than 20 µM and the Kd (HLA-B*27:03; [3]) was no less than 20 µM. The Kd (HLA-A*03:01; [3]) was no less than 20 µM, the Kd (HLA-B*15:01; [3]) was no less than 20 µM and the Kd (HLA-A*02:03) was no less than 20 µM. For the same sequence, the Kd (HLA-A*26:01; [3]) was no less than 20 µM, the Kd (HLA-B*57:01; [3]) was no less than 20 µM and the Kd (HLA-A*02:11) was no less than 20 µM. For the same sequence, the Kd (HLA-A*02:01; [3]) was no less than 20 µM, the Kd (HLA-A*02:16) was no less than 20 µM and the Kd (HLA-B*39:01; [3]) was no less than 20 µM. For the same sequence, the Kd (HLA-A*68:02) was no more than 0.001 µM, the Kd (HLA-B*15:17; [3]) was no less than 20 µM and the Kd (HLA-A*02:19; [3]) was no less than 20 µM. It also gave a Kd (HLA-A*02:12; [3]) of no less than 20 µM.
SVFELSNFA showed a Kd (HLA-B*08:01; [4]) of no less than 5 µM, a Kd (HLA-B*58:01; [4]) of no less than 5 µM and a Kd (HLA-A*23:01 [2]) of no less than 5 µM. The Kd (HLA-A*30:02; [4]) was no less than 5 µM, the Kd (HLA-B*44:02; [4]) was no less than 5 µM and the Kd (HLA-B*40:01; [4]) was no less than 5 µM. For the same sequence, the Kd (HLA-B*27:05; [4]) was no less than 5 µM, the Kd (HLA-B*07:02) was no less than 5 µM and the Kd (HLA-A*66:01; [4]) was no less than 5 µM. For the same sequence, the Kd (HLA-A*30:01) was no less than 5 µM, the Kd (HLA-B*14:02; [4]) was no less than 5 µM and the Kd (HLA-A*11:01; [4]) was no less than 5 µM. For the same sequence, the Kd (HLA-A*01:01; [4]) was no less than 5 µM, the Kd (HLA-B*53:01; [4]) was no less than 5 µM and the Kd (HLA-A*24:03; [4]) was no less than 20 µM. It also gave a Kd (HLA-B*18:01; [4]) of no less than 20 µM, a Kd (HLA-B*46:01; [4]) of no less than 20 µM and a Kd (HLA-A*29:02; [4]) of no less than 20 µM. It also gave a Kd (HLA-B*51:01; [4]) of no less than 20 µM, a Kd (HLA-A*02:06) of 0.002 µM and a Kd (HLA-B*27:03; [4]) of no less than 20 µM. It also gave a Kd (HLA-A*03:01; [4]) of no less than 20 µM, a Kd (HLA-B*15:01; [4]) of no less than 20 µM and a Kd (HLA-A*26:01; [4]) of no less than 20 µM. It also gave a Kd (HLA-B*57:01; [4]) of no less than 20 µM, a Kd (HLA-A*02:01; [4]) of 0.008 µM and a Kd (HLA-B*39:01; [4]) of no less than 20 µM. It also gave a Kd (HLA-B*15:17; [4]) of no less than 20 µM, a Kd (HLA-A*02:19; [4]) of no less than 20 µM and a Kd (HLA-A*02:12; [4]) of 0.679 µM.
